Test [1] has as its target T1, E200 peptide.
T1 construct: Antigen derived from dysfunctional P2X7 receptor
T1 peptide: GHNYTTRNILPGLNITC
Kind of test: binding kinetics on E200 peptide; method not stated.

For test [2], the target named is T1, E200 peptide. Kind of test: binding kinetics on E200 peptide; method not stated; column 'affinity (nM) (E200)'.

B1: BIL03 VH only (other)
VH: EVQLLESGGGLVQPGGSLRLSCAASGFTFRNHDMGWVRQAPGKGLEWVSAISGSGGSTYYANSVKGRFTISRDNSKNTLYLQMNSLRAEDTAVYYCAEPKPMDTEFDYRSPGTLVTVSS
notes: Human single-domain VH tested without a light chain; also called BIL03 heavy chain; single domain heavy chain protein BIL03
On to B1, for which the Kd with E200 peptide [1] and in the test with E200 peptide [2] was 127 nM throughout.

B2: BIL03-Germline B1 (other)
VH: EVQLLESGGGLVQPGGSLRLSCAASGFTFRNHDMGWVRQAPGKGLEWVSAISGSGGSTYYANSVKGRFTISRDNSKNTLYLQMNSLRAEDTAVYYCAEPKPMDTEFDYRSPGTLVTVSS
VL: DIQMTQSPSSLSASVGDRVTITCRASQSISSYLNWYQQKPGKAPKLLIYAASSLQSGVPSRFSGSGSGTDFTLTISSLQPEDFATYYCQQFDYMPLTFGQGTKVEIKR
notes: also called G B1; GB1
As for B2, the values for the Kd with E200 peptide [1] and with E200 peptide [2] were 82.7 nM and 83 nM, respectively.

B3: BIL03-WT B1 (scFv format) (scFv, V domains shown)
VH: EVQLLESGGGLVQPGGSLRLSCAASGFTFRNHDMGWVRQAPGKGLEWVSAISGSGGSTYYANSVKGRFTISRDNSKNTLYLQMNSLRAEDTAVYYCAEPKPMDTEFDYRSPGTLVTVSS
VL: DIQMTQSPSSLSASVGDRVTITCRASQYIYDYLNWYQQKPGKAPKLLIYAASYLQSGVPSRFSGSGSGTDFTLTISSLQPEDFATYYCQQYHHPSTFGQGTKVEIKR
notes: Tested in scFv format, so VH and VL sit in one polypeptide
Regarding B3, the Kd (usually the equilibrium constant for the complex coming apart) with E200 peptide [1] was found to be 24.2 nM; with E200 peptide [2], 24 nM.

For the origin of these results see patent US20240376193A1 (BIOSCEPTRE AUST, published 2024).
